Experimental data taken from PMC10716780, “The multistep oxidation of cholesterol to pregnenolone by human cytochrome P450 11A1 is highly processive” (The Journal of Biological Chemistry, 2023).

Tests used:
human P450 11A1 [1] = molecular target: T1, human P450 11A1 (Homo sapiens, UniProt P05108); assay: Steady-state kinetic assay with [1,2-3H]-cholesterol (radio-HPLC); type: biochemical; set-up: M A S T R S P R P F N E I P S P G D N; Met-Ala (N-terminal start residues in place of the transit peptide and Ile40) (N); made in house; host or cells: E. coli (P450 11A1 in C41(DE3); Adx and AdR in E. coli); settings: ^3H-cholesterol substrate, triplicate
T1 sequence (P05108 41-521 limits assumed): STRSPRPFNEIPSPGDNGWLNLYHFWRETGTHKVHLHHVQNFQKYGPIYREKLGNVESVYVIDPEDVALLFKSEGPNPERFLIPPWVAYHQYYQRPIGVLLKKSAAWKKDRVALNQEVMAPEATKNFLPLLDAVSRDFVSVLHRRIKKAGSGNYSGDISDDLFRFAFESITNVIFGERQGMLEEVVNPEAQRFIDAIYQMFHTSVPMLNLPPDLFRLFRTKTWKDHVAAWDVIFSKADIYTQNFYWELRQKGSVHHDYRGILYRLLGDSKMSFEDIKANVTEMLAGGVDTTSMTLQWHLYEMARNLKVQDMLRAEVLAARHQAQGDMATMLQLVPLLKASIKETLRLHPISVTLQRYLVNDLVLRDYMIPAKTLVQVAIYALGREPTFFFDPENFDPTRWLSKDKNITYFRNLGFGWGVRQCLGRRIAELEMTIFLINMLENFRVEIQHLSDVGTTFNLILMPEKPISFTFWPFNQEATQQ
T1 sequence (P00257 59-186 partner): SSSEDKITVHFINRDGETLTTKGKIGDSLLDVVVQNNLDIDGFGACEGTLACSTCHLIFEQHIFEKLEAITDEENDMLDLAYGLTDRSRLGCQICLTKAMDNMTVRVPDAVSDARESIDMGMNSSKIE
Experimental: Samples (held at 4 °C) were injected (50 μl) using a Agilent 1100 Series HPLC system on a NovaPak (Waters) octadecylsilane (C18) 3.9 mm × 100 mm (4 μm) column (held at 25 °C) with a flow rate of 1.0 ml min^−1 using a gradient mobile phase of (A) H2O and (B) CH3CN as follows (all in % B, v/v): 0 min, 70%; 10 min, 100%; 35.5 min, 100%; 37 min, 30%; and 40 min, 70%). The flow rate was increased to 1.5 ml min^−1 (from the 10 min to 10.5 min interval) to decrease the retention of cholesterol and was later returned to 1.0 ml min^−1 (from the 35 min to 35.5 min interval) to prepare for the next injection. The column eluate was mixed (1:2, v/v) with FlowLogic U scintillation cocktail (LabLogic) and radioactivity (^3H) was detected using a β-RAM Model 5 radioflow detector (IN/US, LabLogic). Analytes were quantitated on the basis of their ^3H peak areas relative to the summed radioactivity of the four compounds of interest.
Figure S13. Steady-state kinetic assay of P450 11A1 with [1,2-^3H]-cholesterol. The enzyme reaction was performed in triplicate as described for the steady-state LC-MS assays, but with the use of ^3H-cholesterol (2 mCi mmol^-1) as the substrate. Product (^3H-pregnenolone) was detected by radio-HPLC as described (Experimental Methods). The highest rate measured was 6.7 ± 0.4 nmol product min^-1 (nmol P450)^-1.

[2] = molecular target: T2, human cytochrome P450 11A1 (human, UniProt P05108 40-521); assay: other fluorescence titration; preformed 1:1 complex of P450 11A1 and cholesterol titrated into Alexa 488-Adx (50 nM) in 100 mM potassium phosphate pH 7.4; quenching of fluorescence (excitation 493 nm, emission 500-600 nm); quadratic fit; with cholesterol (equimolar to P450); settings: both partners purified
T2 construct: cytochrome P450 11A1, human, recombinant, codon-optimized insert in pET23C(+); In one titration it was added as a preformed 1:1 complex with cholesterol; also called CYP11A1; P450scc; source: E. coli C41(DE3) with GroES/GroEL, purified (CHAPS solubilisation, Ni-NTA, dialysis)
T2 sequence (looked up): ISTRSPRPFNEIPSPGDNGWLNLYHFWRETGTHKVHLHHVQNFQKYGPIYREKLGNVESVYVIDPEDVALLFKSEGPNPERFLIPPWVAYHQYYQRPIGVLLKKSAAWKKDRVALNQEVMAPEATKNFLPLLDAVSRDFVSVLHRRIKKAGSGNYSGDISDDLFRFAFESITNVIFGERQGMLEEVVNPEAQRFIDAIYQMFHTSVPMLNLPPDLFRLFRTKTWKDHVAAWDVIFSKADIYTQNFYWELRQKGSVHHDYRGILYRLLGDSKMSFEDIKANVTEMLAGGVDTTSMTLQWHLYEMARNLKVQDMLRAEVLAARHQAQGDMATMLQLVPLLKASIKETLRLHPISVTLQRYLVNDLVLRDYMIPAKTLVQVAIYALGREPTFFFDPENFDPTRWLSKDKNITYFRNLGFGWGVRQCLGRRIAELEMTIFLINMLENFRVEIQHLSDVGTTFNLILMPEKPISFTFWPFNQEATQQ

[3] = molecular target: T2, human cytochrome P450 11A1; assay: other fluorescence titration; P450 11A1 (0-0.4 uM) titrated into Alexa 488-Adx (50 nM) in 100 mM potassium phosphate pH 7.4; quenching of fluorescence (excitation 493 nm, emission 500-600 nm); quadratic fit; without cholesterol; settings: both partners purified
human P450 11A1 [4] = tested on: human P450 11A1; set-up: method as in PMID 33271253; settings: surface plasmon resonance, human ref 46; read-out: Kd of P450 11A1-Adx complex, without sterol; cited from earlier work
bovine P450 11A1 = tested on: bovine P450 11A1; set-up: method as in PMID 15181009; settings: surface plasmon resonance, bovine ref 47; read-out: Kd of P450 11A1-Adx complex, without sterol; cited from earlier work

[3H]C1C([3H])[C@@]2(C)C(=CC[C@H]3[C@@H]4CC[C@H]([C@H](C)CCCC(C)C)[C@@]4(C)CC[C@@H]32)C[C@H]1O (some centres unmarked) [[1,2-^3H]-cholesterol, [1,2-^3H]-Cholesterol]
highest rate measured (human P450 11A1 [1]): 6.7 ± 0.4 nmol product min^-1 (nmol P450)^-1

B1: Alexa Fluor 488-labeled adrenodoxin (natural protein, bovine, UniProt P00257 59-186, looked up)
chain: SSSEDKITVHFINRDGETLTTKGKIGDSLLDVVVQNNLDIDGFGACEGTLACSTCHLIFEQHIFEKLEAITDEENDMLDLAYGLTDRSRLGCQICLTKAMDNMTVRVPDAVSDARESIDMGMNSSKIE
modifications: Alexa Fluor 488 label (site not stated)
notes: also called Alexa 488-Adx; Adx
Kd [2]: 0.0082 µM | Kd [3]: 0.038 µM

B2: Adx: adrenodoxin, soluble iron-sulfur electron donor protein (recombinant bovine); used fluorescently labeled as Alexa 488-Adx (protein)
chain: SSSEDKITVHFINRDGETLTTKGKIGDSLLDVVVQNNLDIDGFGACEGTLACSTCHLIFEQHIFEKLEAITDEENDMLDLAYGLTDRSRLGCQICLTKAMDNMTVRVPDAVSDARESIDMGMNSSKIE
modifications: Alexa Fluor 488 label (site not stated)
notes: adrenodoxin, soluble iron-sulfur electron donor protein (recombinant bovine); used fluorescently labeled as Alexa 488-Adx
Kd (human P450 11A1 [4]): 0.024 µM | Kd (bovine P450 11A1): 0.0134 µM
